B1: D248EE251D: mutated TriA variant of SEQ ID NO: 2 (protein)
chain: MQTLSIQHGTLVTMDQYRRVLGDSWVHVQDGRIVALGVHAESVPPPADRVIDARGKVVLPGFINAHTHVNQILLRGGPSHGRQLYDWLFNVLYPGQKAMRPEDVAVAVRLYCAEAVRSGITTINDNADSAIYPGNIEAAMAVYGEVGVRVVYARMFFDRMDGRIQGYVDALKARSPQVELCSIMEETAVAKDRITALSDQYHGTAGGRISVWPAPAITPAVTVEGMRWAQAFARDRAVMWTLHMAESEHDDRLHWMSPAEYMECYGLLDERLQVAHCVYFDRKDVRLLHRHNVKVASQVVSNAYLGSGVAPVPEMVERGMAVGIGTDDGNCNDSVNMIGDMKFMAHIHRAVHRDADVLTPEKILEMATIDGARSLGMDHEIGSIETGKRADLILLDLRHPQTTPHHHLAATIVFQAYGNEVDTVLIDGNVVMENRRLSFLPPERELAFLEEAQSRATAILQRANMVANPAWRSL
modifications: Pseudomonas
B2: Q298N: mutated TriA variant of SEQ ID NO: 2 (protein)
chain: MQTLSIQHGTLVTMDQYRRVLGDSWVHVQDGRIVALGVHAESVPPPADRVIDARGKVVLPGFINAHTHVNQILLRGGPSHGRQLYDWLFNVLYPGQKAMRPEDVAVAVRLYCAEAVRSGITTINDNADSAIYPGNIEAAMAVYGEVGVRVVYARMFFDRMDGRIQGYVDALKARSPQVELCSIMEETAVAKDRITALSDQYHGTAGGRISVWPAPAITPAVTVEGMRWAQAFARDRAVMWTLHMAESDHDERLHWMSPAEYMECYGLLDERLQVAHCVYFDRKDVRLLHRHNVKVASNVVSNAYLGSGVAPVPEMVERGMAVGIGTDDGNCNDSVNMIGDMKFMAHIHRAVHRDADVLTPEKILEMATIDGARSLGMDHEIGSIETGKRADLILLDLRHPQTTPHHHLAATIVFQAYGNEVDTVLIDGNVVMENRRLSFLPPERELAFLEEAQSRATAILQRANMVANPAWRSL
modifications: Pseudomonas
B3: Q298S: mutated TriA variant of SEQ ID NO: 2 (protein)
chain: MQTLSIQHGTLVTMDQYRRVLGDSWVHVQDGRIVALGVHAESVPPPADRVIDARGKVVLPGFINAHTHVNQILLRGGPSHGRQLYDWLFNVLYPGQKAMRPEDVAVAVRLYCAEAVRSGITTINDNADSAIYPGNIEAAMAVYGEVGVRVVYARMFFDRMDGRIQGYVDALKARSPQVELCSIMEETAVAKDRITALSDQYHGTAGGRISVWPAPAITPAVTVEGMRWAQAFARDRAVMWTLHMAESDHDERLHWMSPAEYMECYGLLDERLQVAHCVYFDRKDVRLLHRHNVKVASSVVSNAYLGSGVAPVPEMVERGMAVGIGTDDGNCNDSVNMIGDMKFMAHIHRAVHRDADVLTPEKILEMATIDGARSLGMDHEIGSIETGKRADLILLDLRHPQTTPHHHLAATIVFQAYGNEVDTVLIDGNVVMENRRLSFLPPERELAFLEEAQSRATAILQRANMVANPAWRSL
modifications: Pseudomonas
B4: S301T: mutated TriA variant of SEQ ID NO: 2 (protein)
chain: MQTLSIQHGTLVTMDQYRRVLGDSWVHVQDGRIVALGVHAESVPPPADRVIDARGKVVLPGFINAHTHVNQILLRGGPSHGRQLYDWLFNVLYPGQKAMRPEDVAVAVRLYCAEAVRSGITTINDNADSAIYPGNIEAAMAVYGEVGVRVVYARMFFDRMDGRIQGYVDALKARSPQVELCSIMEETAVAKDRITALSDQYHGTAGGRISVWPAPAITPAVTVEGMRWAQAFARDRAVMWTLHMAESDHDERLHWMSPAEYMECYGLLDERLQVAHCVYFDRKDVRLLHRHNVKVASQVVTNAYLGSGVAPVPEMVERGMAVGIGTDDGNCNDSVNMIGDMKFMAHIHRAVHRDADVLTPEKILEMATIDGARSLGMDHEIGSIETGKRADLILLDLRHPQTTPHHHLAATIVFQAYGNEVDTVLIDGNVVMENRRLSFLPPERELAFLEEAQSRATAILQRANMVANPAWRSL
modifications: Pseudomonas
B5: S301V: mutated TriA variant of SEQ ID NO: 2 (protein)
chain: MQTLSIQHGTLVTMDQYRRVLGDSWVHVQDGRIVALGVHAESVPPPADRVIDARGKVVLPGFINAHTHVNQILLRGGPSHGRQLYDWLFNVLYPGQKAMRPEDVAVAVRLYCAEAVRSGITTINDNADSAIYPGNIEAAMAVYGEVGVRVVYARMFFDRMDGRIQGYVDALKARSPQVELCSIMEETAVAKDRITALSDQYHGTAGGRISVWPAPAITPAVTVEGMRWAQAFARDRAVMWTLHMAESDHDERLHWMSPAEYMECYGLLDERLQVAHCVYFDRKDVRLLHRHNVKVASQVVVNAYLGSGVAPVPEMVERGMAVGIGTDDGNCNDSVNMIGDMKFMAHIHRAVHRDADVLTPEKILEMATIDGARSLGMDHEIGSIETGKRADLILLDLRHPQTTPHHHLAATIVFQAYGNEVDTVLIDGNVVMENRRLSFLPPERELAFLEEAQSRATAILQRANMVANPAWRSL
modifications: Pseudomonas
B6: S301A: mutated TriA variant of SEQ ID NO: 2 (protein)
chain: MQTLSIQHGTLVTMDQYRRVLGDSWVHVQDGRIVALGVHAESVPPPADRVIDARGKVVLPGFINAHTHVNQILLRGGPSHGRQLYDWLFNVLYPGQKAMRPEDVAVAVRLYCAEAVRSGITTINDNADSAIYPGNIEAAMAVYGEVGVRVVYARMFFDRMDGRIQGYVDALKARSPQVELCSIMEETAVAKDRITALSDQYHGTAGGRISVWPAPAITPAVTVEGMRWAQAFARDRAVMWTLHMAESDHDERLHWMSPAEYMECYGLLDERLQVAHCVYFDRKDVRLLHRHNVKVASQVVANAYLGSGVAPVPEMVERGMAVGIGTDDGNCNDSVNMIGDMKFMAHIHRAVHRDADVLTPEKILEMATIDGARSLGMDHEIGSIETGKRADLILLDLRHPQTTPHHHLAATIVFQAYGNEVDTVLIDGNVVMENRRLSFLPPERELAFLEEAQSRATAILQRANMVANPAWRSL
modifications: Pseudomonas
B7: Q298T: mutated TriA variant of SEQ ID NO: 2 (protein)
chain: MQTLSIQHGTLVTMDQYRRVLGDSWVHVQDGRIVALGVHAESVPPPADRVIDARGKVVLPGFINAHTHVNQILLRGGPSHGRQLYDWLFNVLYPGQKAMRPEDVAVAVRLYCAEAVRSGITTINDNADSAIYPGNIEAAMAVYGEVGVRVVYARMFFDRMDGRIQGYVDALKARSPQVELCSIMEETAVAKDRITALSDQYHGTAGGRISVWPAPAITPAVTVEGMRWAQAFARDRAVMWTLHMAESDHDERLHWMSPAEYMECYGLLDERLQVAHCVYFDRKDVRLLHRHNVKVASTVVSNAYLGSGVAPVPEMVERGMAVGIGTDDGNCNDSVNMIGDMKFMAHIHRAVHRDADVLTPEKILEMATIDGARSLGMDHEIGSIETGKRADLILLDLRHPQTTPHHHLAATIVFQAYGNEVDTVLIDGNVVMENRRLSFLPPERELAFLEEAQSRATAILQRANMVANPAWRSL
modifications: Pseudomonas
B8: Q298C: mutated TriA variant of SEQ ID NO: 2 (protein)
chain: MQTLSIQHGTLVTMDQYRRVLGDSWVHVQDGRIVALGVHAESVPPPADRVIDARGKVVLPGFINAHTHVNQILLRGGPSHGRQLYDWLFNVLYPGQKAMRPEDVAVAVRLYCAEAVRSGITTINDNADSAIYPGNIEAAMAVYGEVGVRVVYARMFFDRMDGRIQGYVDALKARSPQVELCSIMEETAVAKDRITALSDQYHGTAGGRISVWPAPAITPAVTVEGMRWAQAFARDRAVMWTLHMAESDHDERLHWMSPAEYMECYGLLDERLQVAHCVYFDRKDVRLLHRHNVKVASCVVSNAYLGSGVAPVPEMVERGMAVGIGTDDGNCNDSVNMIGDMKFMAHIHRAVHRDADVLTPEKILEMATIDGARSLGMDHEIGSIETGKRADLILLDLRHPQTTPHHHLAATIVFQAYGNEVDTVLIDGNVVMENRRLSFLPPERELAFLEEAQSRATAILQRANMVANPAWRSL
modifications: Pseudomonas

The data set is classed as biochemical. To be noted: pH 7.2. The procedure: EXAMPLE 3: Protein Purification. TriA and variants thereof were produced in E. coli BL21(DE3) Gold (Agilent Technologies, Germany). Therefore E. coli was transformed with appropriate pET24d N-HIS tag expression vector and chaperone plasmid pGro7 (chaperones groEL and groES). Bacterial strains were grown at 30° C. in 100 mL LB for 20 h and protein expression induced with 0.1 mM IPTG at 25° C. for 20 hs. Cells were harvested by centrifugation at 3000 rpm at 4° C. for 20 min, resuspended in Bug Buster protein extraction reagent (Novagen, Germany) according to manufactures instructions. Lysates were clarified by centrifugation. Samples of bovine serum albumin ([…]) were loaded onto each gel analyzed by densitometry to provide an internal standard. Protein determinations were verified using Coomassie protein assay dye, according to manufactures instruction (Thermo Scientific; USA). The HIS-tagged enzymes were purified by metal ion affinity chromatography using Ni-IDA 1000 kit (Macherey-Nagel, Germany) following manufactures instructions. Protein purity was accessed by SDS-PAGE using NuPAGE Novex 4-12% Bis-Tris pre-cast gels (Life Technologies; USA) stained with Coomassie Brilliant Blue (Serva, Germany). Protein concentrations were estimated by measuring absorbance at 280 nm using Lambda Bio+(Perkin Elmer, USA). EXAMPLE 4: Enzyme kinetics. Resting cell suspension containing triA gene were incubated with various azines, melamine and atrazine and the culture filtrate was analyzed by UPLC-HR-MS. Substrates were obtained either from Sigma-Aldrich or synthesized internally. Synthetic standards and enzyme reaction products were analysed by UPLC-HR-MS (Thermo/Dionex UPLC UltiMate3000 coupled to a QExactive high resolution mass spectrometer). A Waters Acquity HSS T3 column (2.1 mm; 100 mm; […]) was used with a mobile phase water/acetonitrile (0.1% formic acid) with a flow rate of […]. Enzymes were used solved 25 mM sodium phosphate buffer (pH 7.2) with substrate concentration in the range of 1 nM to 10 nM at 30° C. Over time, the original azine peak disappeared whereas the formed OH-Metabolite (reaction product) increased. The product was identified by determination of the exact formula and by analysis of the accurate MS-MS fragments. Moreover for some of the formed products authentic standards were co-eluted. Degradation in % was calculated against the cells harboring the empty vector as control.
With B1, the “Degradation in % of 6-cyclopentyl-N4-(2,3,4,5,6-pentafluorophenyl)-1,3,5-triazine-2,4-diamine” value was 2% and the “Degradation in % of Melamine” value was determined as 1%.

With B2, the “Degradation in % of 6-cyclopentyl-N4-(2,3,4,5,6-pentafluorophenyl)-1,3,5-triazine-2,4-diamine” value was 0% and the “Degradation in % of Melamine” value is 5%.

For B3, the “Degradation in % of 6-cyclopentyl-N4-(2,3,4,5,6-pentafluorophenyl)-1,3,5-triazine-2,4-diamine” value is reported as 0% and the “Degradation in % of Melamine” value is on record as 83%.

With B4, the “Degradation in % of 6-cyclopentyl-N4-(2,3,4,5,6-pentafluorophenyl)-1,3,5-triazine-2,4-diamine” value worked out at 1% and the “Degradation in % of Melamine” value worked out at 0%.

Regarding B5, the “Degradation in % of 6-cyclopentyl-N4-(2,3,4,5,6-pentafluorophenyl)-1,3,5-triazine-2,4-diamine” value was 0% and the “Degradation in % of Melamine” value came to 0%.

As for B6, the “Degradation in % of 6-cyclopentyl-N4-(2,3,4,5,6-pentafluorophenyl)-1,3,5-triazine-2,4-diamine” value is 6% and the “Degradation in % of Melamine” value was 0%.

Consider B7, for which the “Degradation in % of 6-cyclopentyl-N4-(2,3,4,5,6-pentafluorophenyl)-1,3,5-triazine-2,4-diamine” value came out at 0% and the “Degradation in % of Melamine” value was 63%.

For B8, the “Degradation in % of 6-cyclopentyl-N4-(2,3,4,5,6-pentafluorophenyl)-1,3,5-triazine-2,4-diamine” value worked out at 23% and the “Degradation in % of Melamine” value was found to be 100%.

Values taken from patent publication US11499162B2, “Plants having increased tolerance to herbicides” (BASF SE, priority 2016, dated 2022).
